According to the supplement of paper PMC6379048:

Key:
Experiment in all cases: EC50 of free RNA motif oligo competing protein binding to immobilised probe
HMGB2 = molecular target: T1, HMGB2 (UniProt P26583)
T1 sequence: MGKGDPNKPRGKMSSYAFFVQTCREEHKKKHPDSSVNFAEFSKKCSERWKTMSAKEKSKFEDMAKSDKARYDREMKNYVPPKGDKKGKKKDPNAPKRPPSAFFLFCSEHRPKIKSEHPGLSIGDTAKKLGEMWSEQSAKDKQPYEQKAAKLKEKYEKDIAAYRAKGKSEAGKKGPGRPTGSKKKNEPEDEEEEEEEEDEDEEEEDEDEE
In short: (§1)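 HEK293-FT lysate (2.5 mg protein/well) was pre-incubated 1 h at 4°C with free RNA oligos (0 nM to 30 μM), then 30 min at 4°C with the same 5′-amino-C6 oligos coupled to NHS-Sepharose beads. Bound proteins were quantified by label-free LC-MS/MS in three biological replicates and two independent experiments, and normalised to the water control. EC50 came from a four-parameter log-logistic fit; Kd is EC50 times a protein-dependent depletion factor.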

ZRANB2 = molecular target: T2, ZRANB2 (UniProt O95218)
T2 sequence: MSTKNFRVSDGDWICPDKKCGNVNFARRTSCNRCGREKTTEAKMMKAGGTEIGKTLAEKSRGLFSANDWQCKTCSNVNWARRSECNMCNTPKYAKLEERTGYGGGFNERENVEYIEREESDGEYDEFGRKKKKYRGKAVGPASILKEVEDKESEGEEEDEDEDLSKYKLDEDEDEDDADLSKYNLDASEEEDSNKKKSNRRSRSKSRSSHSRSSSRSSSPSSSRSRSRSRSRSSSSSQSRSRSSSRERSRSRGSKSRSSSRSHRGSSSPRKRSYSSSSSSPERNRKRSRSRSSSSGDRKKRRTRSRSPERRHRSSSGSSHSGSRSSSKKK
In short: as §1

DHX30 = molecular target: T3, DHX30 (UniProt Q7L2E3)
T3 sequence: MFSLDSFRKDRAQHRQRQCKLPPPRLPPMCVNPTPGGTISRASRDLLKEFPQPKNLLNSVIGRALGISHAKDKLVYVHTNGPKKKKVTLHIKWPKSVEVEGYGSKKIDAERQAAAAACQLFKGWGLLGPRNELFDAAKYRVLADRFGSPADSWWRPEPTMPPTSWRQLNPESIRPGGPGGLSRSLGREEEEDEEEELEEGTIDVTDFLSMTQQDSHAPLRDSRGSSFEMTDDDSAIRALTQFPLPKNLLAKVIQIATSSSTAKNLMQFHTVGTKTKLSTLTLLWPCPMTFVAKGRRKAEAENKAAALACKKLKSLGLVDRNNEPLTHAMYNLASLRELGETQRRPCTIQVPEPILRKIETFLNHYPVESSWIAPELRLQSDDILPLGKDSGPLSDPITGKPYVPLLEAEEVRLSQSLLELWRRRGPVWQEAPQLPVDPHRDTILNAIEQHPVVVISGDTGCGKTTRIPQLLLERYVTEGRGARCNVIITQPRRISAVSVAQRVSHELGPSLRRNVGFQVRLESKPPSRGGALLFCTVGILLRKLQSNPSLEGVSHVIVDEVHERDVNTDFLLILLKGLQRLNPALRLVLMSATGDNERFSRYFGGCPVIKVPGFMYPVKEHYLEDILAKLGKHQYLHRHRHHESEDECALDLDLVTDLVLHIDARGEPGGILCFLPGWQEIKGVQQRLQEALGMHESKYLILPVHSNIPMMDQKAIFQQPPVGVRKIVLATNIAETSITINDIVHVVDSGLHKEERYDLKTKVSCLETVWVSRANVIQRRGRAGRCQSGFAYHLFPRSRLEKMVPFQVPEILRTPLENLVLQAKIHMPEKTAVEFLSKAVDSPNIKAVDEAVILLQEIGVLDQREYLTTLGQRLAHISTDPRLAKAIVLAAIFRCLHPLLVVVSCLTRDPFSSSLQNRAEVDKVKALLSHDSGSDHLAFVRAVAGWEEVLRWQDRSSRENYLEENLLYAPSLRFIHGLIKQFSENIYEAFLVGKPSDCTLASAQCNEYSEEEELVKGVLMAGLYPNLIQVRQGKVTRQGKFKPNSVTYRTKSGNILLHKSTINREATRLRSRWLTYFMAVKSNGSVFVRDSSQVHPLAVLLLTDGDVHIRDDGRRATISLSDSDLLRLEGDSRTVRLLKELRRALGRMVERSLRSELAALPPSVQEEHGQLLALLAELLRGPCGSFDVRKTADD
In short: as §1

GRSF1 = molecular target: T4, GRSF1 (UniProt Q12849)
T4 sequence: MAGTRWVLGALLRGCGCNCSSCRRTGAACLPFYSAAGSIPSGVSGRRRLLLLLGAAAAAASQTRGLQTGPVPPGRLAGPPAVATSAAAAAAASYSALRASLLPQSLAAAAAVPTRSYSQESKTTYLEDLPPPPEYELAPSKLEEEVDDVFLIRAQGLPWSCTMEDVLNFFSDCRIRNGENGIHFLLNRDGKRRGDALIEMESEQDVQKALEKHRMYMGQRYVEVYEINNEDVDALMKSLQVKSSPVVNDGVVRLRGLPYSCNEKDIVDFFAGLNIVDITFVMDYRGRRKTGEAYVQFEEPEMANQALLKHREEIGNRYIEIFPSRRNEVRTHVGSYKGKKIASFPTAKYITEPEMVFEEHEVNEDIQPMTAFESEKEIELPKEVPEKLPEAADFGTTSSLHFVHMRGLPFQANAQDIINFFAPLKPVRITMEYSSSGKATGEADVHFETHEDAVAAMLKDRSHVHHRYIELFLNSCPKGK
In short: as §1

With AAUAAA the EC50 (HMGB2) was 2.5 nM and the EC50 (ZRANB2) was 1900 nM.

Sequence CUGUCCU has an EC50 (DHX30) of 113 nM.

UAUUUAU was tested, and the EC50 (GRSF1) was 18 µM.
